Data on one substance can be found in patent US20230086530A1.

Experiment [1] deals with human CD47 on the cell membrane surface of CD47 positive tumor cells (Raji, NUGC-4, Jurkat) (human) (UniProt Q08722). As to the kind of experiment: FACS on Raji cells, 0.5 µg/mL.
Experiment [2] shares this target. As to the kind of experiment: FACS on Raji cells, 0.05 µg/mL.

Sequence of human CD47 on the cell membrane surface of CD47 positive tumor cells (Raji, NUGC-4, Jurkat) (human) (Q08722 19-323): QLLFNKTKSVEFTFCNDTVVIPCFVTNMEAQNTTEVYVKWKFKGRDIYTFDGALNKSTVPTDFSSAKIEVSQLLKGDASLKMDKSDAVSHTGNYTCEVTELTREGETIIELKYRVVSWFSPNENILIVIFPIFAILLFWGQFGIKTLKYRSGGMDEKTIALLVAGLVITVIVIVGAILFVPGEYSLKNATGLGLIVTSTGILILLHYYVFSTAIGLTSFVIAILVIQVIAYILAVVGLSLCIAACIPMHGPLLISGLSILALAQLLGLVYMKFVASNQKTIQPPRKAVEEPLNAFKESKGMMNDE

isotype control antibody: the Mean fluorescence intensity (multiple) in experiment [1] and in experiment [2] was 1 fold each time.
